Experimental data taken from the supplement of paper PMC10126150.
± gives the standard deviation of the averaged measurements.

System: ATP
Assay: switch fluorescence ratio, 500 uM ATP over buffer (Cy3 cluster intensity, sum of 5 cycles each) (fold (ratio)); higher = stronger signal-on switching upon ATP binding; sequences stand for … in TCGTCGGCAGCGTCAGATGTGTATAAGAGACAGTTTTTTTTTTTTTTTTTTTTTTTTT…TC
Conditions: aptamer strand: ATP DNA aptamer (quencher-CACCTGGGGGAGTATTGCGGAGGAAGG + anchor), 100 nM annealed; ATP concentration: 500 uM
In short: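 Cy3-labelled switching-strand clusters on a modified Illumina MiSeq flow-cell were annealed to 100 nM quencher-labelled ATP aptamer and imaged first in selection buffer, then after 15 min with 500 uM ATP at 22 °C. NaOH stripping and re-annealing separated each of five buffer/ATP cycles, and clusters outside 100-1000 RFU were excluded. The fluorescence ratio sums target-cycle Cy3 intensity over buffer-cycle Cy3 intensity per cluster and averages it per switch-domain sequence.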
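Further: ATP exposure 15 min at 22 °C before imaging.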

| Sequence | switch fluorescence ratio |
| --- | --- |
| CTGATTGGGC | 1 ± 0.013 |
| CTGATTTTAT | 0.9856 ± 0.0013 |
| CTGATTTTTT | 1.02 ± 0.045 |
| CTGCAACTAA | 2.27 ± 0.054 |
| CTGCACGGAG | 1.01 ± 0.022 |
| CTGCCTTGTT | 1 ± 0.015 |
| CTGCGGGCCG | 1.004 ± 0.0073 |
| CTGCTAAGTA | 1.01 ± 0.013 |
| CTGCTAGGGG | 1.04 ± 0.034 |
| CTGCTGGGGC | 1.05 ± 0.026 |
| CTGCTTGGTT | 1.001 ± 0.0047 |
| CTGGAAGCTA | 1.6 ± 0.1 |
| CTGGAAGGGG | 1.04 ± 0.024 |
| CTGGAAGTTT | 0.952 ± 0.044 |
| CTGGATCCTG | 1.02 ± 0.053 |
| CTGGATGGAG | 0.9934 ± 0.0047 |
| CTGGATTAAT | 1.02 ± 0.04 |
| CTGGATTTCA | 0.99 ± 0.027 |
| CTGGCATGTA | 1.0141 ± 0.00098 |
| CTGGCATTAT | 1.21 ± 0.038 |
| CTGGCCTTTG | 0.983 ± 0.036 |
| CTGGCGGATT | 0.985 ± 0.05 |
| CTGGCGGGGA | 1.02 ± 0.025 |
| CTGGCTAGGC | 1 ± 0.014 |
| CTGGCTTTGG | 1.05 ± 0.043 |

| Sequence | switch fluorescence ratio |
| --- | --- |
| CTGGCTTTTG | 0.999 ± 0.017 |
| CTGGGAACGA | 0.998 ± 0.035 |
| CTGGGACAGT | 0.995 ± 0.034 |
| CTGGGAGGAT | 0.98788 ± 0.0003 |
| CTGGGAGTGG | 1.04 ± 0.013 |
| CTGGGATGTG | 0.98 ± 0.023 |
| CTGGGATTGG | 1.001 ± 0.0039 |
| CTGGGCACGT | 0.997 ± 0.023 |
| CTGGGCAGGT | 1 ± 0.016 |
| CTGGGGATTG | 1.01 ± 0.014 |
| CTGGGGCGTC | 0.993 ± 0.045 |
| CTGGGGGGAG | 1.01 ± 0.024 |
| CTGGGGGGGA | 1.02 ± 0.022 |
| CTGGGGGGGT | 0.994 ± 0.036 |
| CTGGGGGTA | 0.9889 ± 0.0083 |
| CTGGGGGTGG | 0.964 ± 0.011 |
| CTGGGGTTCG | 1.0213 ± 0.00034 |
| CTGGGTATGA | 1.01 ± 0.024 |
| CTGGGTCCGG | 1.01 ± 0.024 |
| CTGGGTGGGG | 1 ± 0.013 |
| CTGGGTTGGC | 1.0029 ± 0.00048 |
| CTGGGTTTCG | 0.974 ± 0.042 |
| CTGGTAAGGA | 1.017 ± 0.0031 |
| CTGGTATTAT | 1.017 ± 0.0046 |
| CTGGTCCGGC | 1.01 ± 0.078 |

| Sequence | switch fluorescence ratio |
| --- | --- |
| CTGGTGAGTT | 0.9789 ± 0.0012 |
| CTGGTGGGAG | 0.9857 ± 0.0067 |
| CTGGTGGGTC | 1.01 ± 0.018 |
| CTGGTGTGGA | 1.034 ± 0.0058 |
| CTGGTTAATT | 0.973 ± 0.017 |
| CTGGTTTATA | 0.962 ± 0.027 |
| CTGGTTTCGG | 0.993 ± 0.022 |
| CTGGTTTGAG | 0.97 ± 0.012 |
| CTGTAAGGCC | 0.981 ± 0.015 |
| CTGTAAGGGG | 0.977 ± 0.022 |
| CTGTAATATT | 1.13 ± 0.029 |
| CTGTACGGGG | 1.02 ± 0.054 |
| CTGTATATAG | 1.017 ± 0.0083 |
| CTGTATGGGT | 0.9978 ± 0.0094 |
| CTGTATGGTA | 1.04 ± 0.045 |
| CTGTATGTCA | 0.99 ± 0.0098 |
| CTGTATTCAC | 1.04 ± 0.033 |
| CTGTCAAGTA | 0.972 ± 0.012 |
| CTGTCGAGTA | 1.13 ± 0.19 |
| CTGTCTGCCG | 1.01 ± 0.017 |
| CTGTGATACT | 2.93 ± 0.22 |
| CTGTGGAGGG | 0.9455 ± 0.0091 |
| CTGTGGGTCC | 0.976 ± 0.034 |
| CTGTGGGTTC | 1 ± 0.016 |
| CTGTGTATGG | 0.989 ± 0.036 |

| Sequence | switch fluorescence ratio |
| --- | --- |
| CTGTGTCTTT | 0.995 ± 0.072 |
| CTGTTAGAGA | 1.01 ± 0.014 |
| CTGTTAGGGG | 0.967 ± 0.03 |
| CTGTTAGGTA | 1.007 ± 0.01 |
| CTGTTATCGA | 0.9972 ± 0.0029 |
| CTGTTCTGGC | 0.962 ± 0.12 |
| CTGTTTATTG | 0.977 ± 0.027 |
| CTGTTTGGTA | 1 ± 0.055 |
| CTGTTTGTAT | 0.978 ± 0.02 |
| CTGTTTGTGC | 0.975 ± 0.013 |
| CTGTTTTGGT | 1.008 ± 0.0028 |
| CTGTTTTTGT | 1.01 ± 0.024 |
| CTTAAAATGG | 1.03 ± 0.038 |
| CTTAAACAGC | 1.02 ± 0.063 |
| CTTAAAGAGT | 0.964 ± 0.043 |
| CTTAAAGGTC | 1.02 ± 0.052 |
| CTTAAATATG | 1 ± 0.012 |
| CTTAAATGTT | 1.014 ± 0.0078 |
| CTTAATTATA | 1.01 ± 0.015 |
| CTTAATTTGA | 0.984 ± 0.058 |
| CTTACATTGC | 1.05 ± 0.029 |
| CTTACCTTGC | 1.99 ± 0.44 |
| CTTACGGCAC | 1.82 ± 0.062 |
| CTTACGGGCA | 1.03 ± 0.033 |
| CTTACGTCTG | 1.01 ± 0.015 |

| Sequence | switch fluorescence ratio |
| --- | --- |
| CTTACTATTG | 1.03 ± 0.05 |
| CTTAGATGTT | 0.963 ± 0.024 |
| CTTAGCTAGA | 1.0428 ± 0.00056 |
| CTTAGGAGGG | 0.997 ± 0.013 |
| CTTAGGGGAT | 1.03 ± 0.047 |
| CTTAGGGGT | 1.03 ± 0.015 |
| CTTAGGGTAG | 1.01 ± 0.019 |
| CTTAGTAGTA | 0.992 ± 0.019 |
| CTTATAATAG | 1.036 ± 0.006 |
| CTTATAGACT | 1.01 ± 0.011 |
| CTTATGATTT | 0.998 ± 0.033 |
| CTTATTAGGC | 1.05 ± 0.042 |
| CTTATTAGGT | 0.985 ± 0.045 |
| CTTATTTGGC | 1.032 ± 0.0017 |
| CTTCACCAAC | 1.19 ± 0.013 |
| CTTCAGGAAG | 0.9946 ± 0.0021 |
| CTTCATAGGG | 0.968 ± 0.024 |
| CTTCGTGCAT | 1.23 ± 0.069 |
| CTTCTCGGCG | 1.08 ± 0.053 |
| CTTCTCTAGT | 0.9742 ± 0.0069 |
| CTTCTGAGGG | 1.02 ± 0.012 |
| CTTCTGGGGA | 0.993 ± 0.02 |
| CTTCTTCAGC | 1.44 ± 0.061 |
| CTTGAATTTT | 0.988 ± 0.049 |
| CTTGCATAAC | 3.51 ± 0.88 |

| Sequence | switch fluorescence ratio |
| --- | --- |
| CTTGCGCCTG | 1.01 ± 0.048 |
| CTTGGAAATA | 1.02 ± 0.013 |
| CTTGGAAGGG | 0.9683 ± 0.006 |
| CTTGGCTCTT | 0.985 ± 0.01 |
| CTTGGGACTT | 1 ± 0.05 |
| CTTGGGGCTT | 0.985 ± 0.014 |
| CTTGGGGGAA | 0.964 ± 0.013 |
| CTTGGGTCTG | 1 ± 0.066 |
| CTTGGTAGTG | 0.959 ± 0.015 |
| CTTGGTCAAG | 0.9834 ± 0.0062 |
| CTTGGTGGGG | 0.969 ± 0.031 |
| CTTGGTGTAT | 1.03 ± 0.086 |
| CTTGGTGTTG | 1.04 ± 0.065 |
| CTTGTAACGG | 0.975 ± 0.01 |
| CTTGTAATTT | 1.02 ± 0.035 |
| CTTGTAGGGA | 0.9956 ± 0.0053 |
| CTTGTATTAG | 1.01 ± 0.012 |
| CTTGTCAGGG | 0.975 ± 0.021 |
| CTTGTCGAGG | 0.986 ± 0.042 |
| CTTGTCTGAG | 0.9818 ± 0.0096 |
| CTTGTGGATG | 1 ± 0.029 |
| CTTGTTAGCG | 0.9807 ± 0.0076 |
| CTTGTTAGGG | 0.996 ± 0.032 |
| CTTGTTGCCG | 1.01 ± 0.013 |
| CTTGTTTAAC | 0.993 ± 0.035 |

| Sequence | switch fluorescence ratio |
| --- | --- |
| CTTGTTTTGT | 1.02 ± 0.015 |
| CTTTAAGGTG | 1.39 ± 0.062 |
| CTTTACACAG | 1.0006 ± 0.00047 |
| CTTTAGGTGG | 1.03 ± 0.037 |
| CTTTATGTCG | 1.02 ± 0.048 |
| CTTTATGTTT | 0.991 ± 0.015 |
| CTTTATTGGG | 0.972 ± 0.02 |
| CTTTATTTAG | 0.997 ± 0.023 |
| CTTTATTTGC | 1.05 ± 0.021 |
| CTTTCATCTA | 1.01 ± 0.03 |
| CTTTCCCCGT | 1.396 ± 0.0017 |
| CTTTCCGTGC | 1.32 ± 0.035 |
| CTTTCTAAGG | 1.02 ± 0.036 |
| CTTTCTTTGG | 0.99 ± 0.018 |
| CTTTGAAAA | 1.02 ± 0.02 |
| CTTTGAAGAG | 1.017 ± 0.0058 |
| CTTTGAAGTT | 1.01 ± 0.029 |
| CTTTGCGTTT | 1.02 ± 0.093 |
| CTTTGGAGAC | 1.06 ± 0.051 |
| CTTTGGGCCC | 0.98271 ± 0.0009 |
| CTTTGTATTC | 1.04 ± 0.022 |
| CTTTGTCTTA | 0.999 ± 0.05 |
| CTTTGTGCGT | 0.99 ± 0.029 |
| CTTTTACTCG | 1.01 ± 0.073 |
| CTTTTAGGA | 0.995 ± 0.021 |

| Sequence | switch fluorescence ratio |
| --- | --- |
| CTTTTATCAC | 1.25 ± 0.43 |
| CTTTTATGGG | 0.993 ± 0.023 |
| CTTTTCTTCA | 1.01 ± 0.046 |
| CTTTTGGGGG | 0.991 ± 0.028 |
| CTTTTGTGTC | 0.9866 ± 0.0071 |
| CTTTTTAGTC | 1.03 ± 0.013 |
| CTTTTTATGG | 1.03 ± 0.033 |
| CTTTTTGAGG | 0.983 ± 0.048 |
| CTTTTTGGTA | 0.9975 ± 0.0084 |
| CTTTTTTTTC | 1.03 ± 0.078 |
| GAAAAAAAGA | 1 ± 0.021 |
| GAAAAAAATT | 1.02 ± 0.024 |
| GAAAAAGACT | 1.04 ± 0.089 |
| GAAAAATCGA | 0.9882 ± 0.0056 |
| GAAAAATTTC | 0.99 ± 0.028 |
| GAAAAGGTCA | 1.04 ± 0.019 |
| GAAAATAGTG | 1.01 ± 0.029 |
| GAAACTATTT | 1.03 ± 0.05 |
| GAAACTGGGG | 1.02 ± 0.031 |
| GAAAGAAACT | 1.63 ± 0.98 |
| GAAAGAAATG | 0.9994 ± 0.003 |
| GAAAGGGTTT | 1.01 ± 0.048 |
| GAAAGTGAGA | 1.01 ± 0.056 |
| GAAAGTGGTG | 0.9921 ± 0.0055 |
| GAAATAAAAG | 0.9796 ± 0.0064 |
